# Reference: patent US10752881B2, “Trans-differentiation of differentiation cells” (Helmholtz Zentrum München-Deutsches Forschungszentrum für …, priority 2014, dated 2020)
# Residues, ends and D or L forms follow the SMILES beside them. *: point of attachment. Cbz = O=C(OCc1ccccc1)*; CH2F = FC*
# B1: Bcl-2: mouse Bcl-2 cDNA expressed from plasmid or retroviral vector; anti-apoptotic member of the Bcl-2 family (protein, listed as Mus musculus)
# chain: MAQAGRTGYDNREIVMKYIHYKLSQRGYEWDAGDADAAPLGAAPTPGIFSFQPESNPMPAVHRDMAARTSPLRPLVATAGPALSPVPPVVHLTLRRAGDDFSRRYRRDFAEMSSQLHLTPFTARGRFATVVEELFRDGVNWGRIVAFFEFGGVMCVESVNREMSPLVDNIALWMTEYLNRHLHTWIQDNGGWDAFVELYGPSMRPLFDFSWLSLKTLLSLALVGACITLGAYLGHK
# B2: Neurog2: neurogenic transcription factor expressed from retroviral vector with RFP (protein, UniProt P70447 1-263, looked up)
# Neurogenin-2: MFVKSETLELKEEEEVLMLLGSASPASATLTPMSSSADEEEDEELRRPGSARGQRGAEAEQGVQGSPASGAGGCRPGRLLGLMHECKRRPSRSRAVSRGAKTAETVQRIKKTRRLKANNRERNRMHNLNAALDALREVLPTFPEDAKLTKIETLRFAHNYIWALTETLRLADHCAGAGGLQGALFTEAVLLSPGAALGASGDSPSPPSSWSCTNSPASSSNSTSPYSCTLSPASPGSDVDYWQPPPPEKHRYAPHLPLARDCI
# B3: Vdr: murine vitamin D receptor over-expressed from retroviral vector RV-pCAG-Vdr-IRES-GFP (protein, listed as Mus musculus)
# chain: MEAMAASTSLPDPGDFDRNVPRICGVCGDRATGFHFNAMTCEGCKGFFRRSMKRKALFTCPFNGDCRITKDNRRHCQACRLKRCVDIGMMKEFILTDEEVQRKREMIMKRKEEEALKDSLRPKLSEEQQHIIAILLDAHHKTYDPTYADFRDFRPPIRADVSTGSYSPRPTLSFSGDSSSNSDLYTPSLDMMEPASFSTMDLNEEGSDDPSVTLDLSPLSMLPHLADLVSYSIQKVIGFAKMIPGFRDLTSDDQIVLLKSSAIEVIMLRSNQSFTLDDMSWDCGSQDYKYDITDVSRAGHTLELIEPLIKFQVGLKKLNLHEEEHVLLMAICIVSPDRPGVQDAKLVEAIQDRLSNTLQTYIRCRHPPPGSHQLYAKMIQKLADLRSLNEEHSKQYRSLSFQPENSMKLTPLVLEVFGNEIS
# Columns and labels:
# adult human fibroblasts = experiment: Neuronal reprogramming of adult human fibroblasts; type: cell-based; settings: for effect on reprogramming efficiency of human fibroblasts: combination Ascl1/Bcl-2/Vdr, 60 DPI
# Source text: To determine whether Bcl-2 would also efficiently enhance reprogramming into neurons in cells from other species, we used fibroblasts obtained from a person that were expanded and transduced as described above with the retroviral vector encoding Ascl1 and RFP alone or in combination with a second vector encoding the human BCL-2 (hBCL-2) and the reporter GFP.
# Primary cultures of human skin fibroblasts were established from 3 mm diameter full thickness punch biopsy specimens which were mechanically dissociated before plating. […] For reprogramming experiments cells were plated on coverslips in 24-well plates as described above for astrocytes and 48 hours after infection medium was changed to DMEM high glucose with GlutaMAX and 1% fetal calf serum, penicillin/streptomycin and B27 supplement (Gibco). During the reprogramming process, medium was replaced by conditioned-astrocyte medium every 3 days. Conditioned-astrocyte medium is obtained by growing astroglial culture with differentiation medium (see Cell cultures of astroglia from the postnatal mouse cerebral cortex above) during minimum of 2 days. Then the medium is collected from astrocytes and used for reprogramming of the human cells.
# For the expression of neurogenic transcription factors we used self-inactivating retroviral vectors containing the actin promoter with cytomegalovirus enhancer (pCAG) driving the expression of the gene of interest (flag/myc-Ascl1, flag-Neurog2, Bcl-2 or Dlx-2) linked to a fluorescent reporter by internal ribosomal entry site (IRES) as previously described (Heinrich et al., 2011). The mouse version of Bcl-2 cDNA was obtained from Source BioScience (IRAVp968H01145D; pCMV-SPORT6.1-Bcl-2) and the human cDNA version (h-Bcl-2) from addgene (Plasmid number 8793; pMIG-Bcl-2-IRES-GFP) to generate RV-pCAG-flag/myc-Ascl1-IRES-Bcl-2, RV-pCAG-flag-Neurog2-IRES-Bcl-2 or RV-pCAG-Bcl-2-IRES-GFP, which encodes for both Bcl-2 and the reporter GFP. The Bcl-2 mutants A-Bcl-2 and EE-Bcl-2 were produced by directed mutagenesis with the oligos 5′-[…]-3′ (SEQ ID NO: 18) (and complementary (SEQ ID NO: 20)) and 5′-[…]-3′ (SEQ ID NO: 19) (and complementary (SEQ ID NO: 21)) respectively, to generate the vectors pCMV-SPORT6.1-A-Bcl-2, RV-pCAG-Ascl1-IRES-A-Bcl-2 and RV-pCAG-Neurog2-IRES-A-Bcl-2 and the corresponding EE-Bcl-2 versions. Mutations were verified by sequencing. The murine Vdr was obtained from Sino Biological (MG51106-G, Vector pGEM-T) and sub-cloned in the retroviral vector to generate RV-pCAG-Vdr-IRES-GFP.
# [1] = system: postnatal mouse astrocytes; settings: for effect on reprogramming efficiency of astrocytes: Ascl1-transfected, 4 days of calcitriol treatment
# Procedure: (C) Histogram of astroglial cultures transfected with Ascl1-RFP-encoding plasmid alone or in combination with WT-Bcl-2, EE-Bcl-2 or A-Bcl-2 at 4 days post-transfection (DPT). The number of transfected cells (RFP+) at final time point (4 DPT) was normalized to the initial number of transfected cells (1 DPT) to calculate the % of survival. The % of neuronal conversion was analysed by β-III-tubulin immunostaining and normalized to total number of RFP+ cells at the end of the experiment. Error bars indicate ±SD. *p<0.05, **p<0.01; ANOVA Tukeys post-test.
# A, Quantifications at 5 DPT (days post-transfection) showing the effect of the inhibitor of ferroptosis, α-toc and the inhibitor of apoptosis, ZVAD in survival/efficiency of conversion of astroglial cells transfected with Ascl1-RFP.
# C, Percentage of neurons in astroglial cells transfected with Ascl1-encoding plasmid alone or in combination with Bcl-2 and/or Vdr at 5 DPT after 4 days of treatment with calcitriol or untreated.
# After removal of the meninges, grey matter tissue was dissected from P5-P7 cerebral cortex of C57BL/6J mice and dissociated mechanically. Subsequently, cells were centrifuged for 5 min at 1000 rpm, re-suspended, and plated in medium consisting of DMEM/F12 (Gibco), 3.5 mM glucose (Sigma), 10% fetal calf serum (Gibco), 5% horse serum (Gibco), penicillin/streptomycin (Gibco) and supplemented with B27 (Gibco), 10 ng/mL epidermal growth factor (EGF, Roche) and 10 ng/mL fibroblast growth factor 2 (FGF2, Roche). After one week expansion cells were harvested using trypsin/EDTA (Gibco) and plated onto poly-D-lysine (Sigma-Aldrich) coated glass coverslips in 24-well plates (BD Biosciences) or directly onto the plastic for time lapse experiments at a density of 60,000 cells per well in the same medium. After 24 hours cells were either transfected with plasmid or infected with retroviral vectors and after further 24 hours medium was changed to differentiation medium composed of DMEM/F12 high glucose with GlutaMAX, penicillin/streptomycin and B27 supplement (Gibco) to allow neuronal differentiation.
# For transfection DNA-liposome complexes were prepared in Optimem medium (Invitrogen) using the retroviral plasmids described below and Lipofectamine 2000 (Invitrogen). Astrocyte cultures were exposed to DNA-liposome complexes at a concentration of 0.5 μg DNA per 400 μl of Optimem medium for 4 hours and cultured after that in the differentiation medium as above.
# Cells were fixed in 4% paraformaldehyde (PFA) in phosphate-buffered saline (PBS) for 10 min at room temperature (RT), washed in PBS and pretreated in 0.5% Triton X-100 in PBS for 30 min, followed by incubation in 2% BSA and 0.5% Triton X-100 in PBS for 30 min. Primary antibodies were incubated on specimen overnight at 4° C. in 2% BSA, 0.5% Triton X-100 in PBS.
# reactive glial cells = experiment: In vivo conversion of reactive glial cells into neurons after stab wound injury; settings: for acquisition of neuronal marker NeuN by singly transduced cells: single GFP+ or RFP+ cells
# Source text: A, Experimental protocol for stab wound injury and subsequent infection with retroviral vectors (Neurog2/RFP and Bcl-2/GFP) or treatment with calcitriol, analysed at 10 or 20 days post-infection (DPI).
# To highlight the relevance of our findings we next tested the efficiency of the methods described above in vivo. For that, we performed stab wound injury followed by injection of retroviral vectors encoding Neurog2-IRES-RFP and Bcl-2-IRES-GFP next to the injury site (FIG. 7A) using a previously described protocol (see Heinrich et al., 2014). Control infected cells were glial in nature, mostly NG2+ cells of the oligodendrocyte lineage or S100b/GFAP+ astrocytes as described before (Heinrich et al., 2014). […] To examine whether key metabolic constraints observed to be important for fate conversion in vitro were also relevant in vivo we tested activation of the Vitamin D receptor pathway by the ligand calcitriol.
# Operations were performed in accordance with the policies of the state of Bavaria under license number 55.2-1-54-2532-171-11. A unilateral stab wound lesion (1 mm long, 0.6 mm deep from the dura mater) was performed in the right neocortex with a 19 gauge-thick lancet without injuring the cortical white matter, as previously described (Sirko et al. 2013; Simon et al. 2011). Three days later, 0.5-1 μl of retroviral suspension (Neurog2-IRES-RFP and Bcl-2-IRES-GFP, 1:1) was injected in the site of the lesion with a glass capillary connected to a microinjector (Nanoliter2000+Sys-Micro4, World Precision Instrument), at a rate of 30-60 nl/min. The needle was retracted 5 minutes after completing the injection. When indicated in the text, 200 μl of Calcitriol (Tocris) diluted in corn oil (final concentration of 1 ng/μl) were administered through oral gavage 2 days after the retroviral injection. The dosage was determined according with previous publications (Nashold et al. 2013).
# Animals were anesthetized and transcardially perfused with 1× phosphate-buffered saline (PBS), followed by 4% paraformaldehyde (PFA) in PBS. Brains were postfixed for 2 hours, washed twice with PBS and embedded in 4% agarose/water. Finally, 60 μm-thick coronal sections were cut using a vibrating microtome (Leica).
# vitamin d receptor (vdr) = experiment: Vdr expression during neuronal reprogramming (immunostaining); type: cell-based; settings: during neuronal reprogramming with Ascl1, 5 DPI
# Procedure: A, Percentage of cells expressing Vdr in cultures infected with Ascl1-encoding vector alone or Ascl1+A-Bcl-2 at 5 DPI. Vdr presence was determined by immunostaining (B). Note that Bcl-2 increases the proportion of cells expressing endogenous Vdr during neuronal reprogramming.
# [2] = system: Mouse embryonic fibroblasts (MEFs); experiment: Fibroblast-to-neuron reprogramming of MEFs with retroviral vectors, β-III-tubulin immunostaining; type: cell-based
# [3] = system: astroglia isolated from mouse cerebral cortex at postnatal day 5-7; experiment: Continuous single cell live imaging of Ascl1-mediated astrocyte-to-neuron reprogramming; type: cell-based; settings: for increase of proportion of cells successfully completing reprogramming into neurons: Ascl1 + Bcl-2 vs Ascl1 only
# Source text: In order to identify the cellular mechanisms of neuronal reprogramming, astroglia isolated from mouse cerebral cortex at postnatal day 5-7 were transfected with an Ascl1-encoding vector thereby targeting non-proliferating cells in addition to those transduced by approaches such as MLV-based retroviral vectors that require proliferation and break-down of the nuclear envelope for successful gene transfer. Our transfection protocol (Heinrich et al., PLoS biology 8, e1000373 (2010); Heinrich et al., Nature protocols 6, 214-228 (2011)) enables cells labelled by red fluorescent protein (RFP) 24 hours after transfection to be subject to continuous live imaging for the main phase of reprogramming (i.e. 6 days). Glial and neuronal cells were identified by their morphology, with the former displaying a flat astrocyte-like morphology and the latter with a round cell soma and thin processes (monopolar, bipolar and multipolar) at least 3× longer than the cell soma. This morphology-based classification was confirmed by post-imaging immunostaining (FIG. 1A). Few of the cells transduced with Ascl1 divided during the 150 hours observation (15%: FIG. 1E). Thus, the vast majority of direct neuronal reprogramming occurs in the absence of proliferation in this system.
# Time-lapse video microscopy was performed with a cell observer (Zeiss) at a constant temperature of 37° C. and 8% CO2. Phase contrast images were acquired every 5 minutes, and fluorescence pictures every 4-6 hours for 6.5-7.5 days using a 10× phase contrast objective (Zeiss), and an AxioCamHRm camera with a self-written VBA module remote controlling Zeiss AxioVision 4.7 software (Rieger and Schroeder, Journal of cellular biochemistry 108, 343-352 (2009)). Movies were assembled using Image J 1.42q (National Institute of Health, USA) software and are played at speed of 3 frames per second.
# [4] = astroglial cells transfected with Ascl1-RFP, 5 DPT
molecule,measurement,setting,value
hBcl-2: human BCL-2 encoded by a retroviral vector with the reporter GFP,increase of β-III-tubulin+ cells compared to Ascl1/RFP expressing cells,adult human fibroblasts; co-transduced with Ascl1,32 × fold
same,co-infected cells (RFP and GFP) that were β-III-tubulin+,"adult human fibroblasts; co-transduced with Ascl1, fibroblasts from a person",up to 70%
COC(=O)C[C@H](NC(=O)[C@H](C)NC(=O)[C@@H](NC(=O)OCc1ccccc1)C(C)C)C(=O)CF [ZVAD] (Cbz-Val-Ala-Asp(OMe)-CH2F),effect on efficiency of conversion (reprogramming efficiency),[1]; [4],not conversion efficiency
Cc1c(C)c2c(c(C)c1O)CC[C@@](C)(CCC[C@H](C)CCC[C@H](C)CCCC(C)C)O2 [α-tocopherol],effect on efficiency of conversion (reprogramming efficiency),[1]; [4],increase reprogramming efficiency
same,effect on survival / cell death,[1]; [4],reduces cell death
"C=C1/C(=C\C=C2/CCC[C@]3(C)[C@@H]([C@H](C)CCCC(C)(C)O)CC[C@@H]23)C[C@@H](O)C[C@@H]1O [calcitriol, reference compound]",effect on reprogramming efficiency of human fibroblasts,adult human fibroblasts,enhance reprogramming efficiency
same,effect on morphology and maturation state of the neurons,"reactive glial cells; Neurog2 + Bcl-2, calcitriol 200 ng orally, 23 days after viral infection",profoundly improved morphology and maturation state of the neurons
same,proportion of NeuN+ neurons of all co-transduced cells,"reactive glial cells; Neurog2 + Bcl-2 co-expression, calcitriol 200 ng orally 2 days after viral injection, 10 DPI",~90%
same,effect on reprogramming efficiency of astrocytes,[1]; 5 DPT,enhance reprogramming efficiency
B1,neuronal conversion of co-transduced cells (GFP+/RFP+),"reactive glial cells; Neurog2-IRES-RFP and Bcl-2-IRES-GFP co-transduced, 10 DPI",many co-transduced cells (GFP+/RFP+) exhibited elongated neuronal-shape morphology and were immunoreactive for NeuN
same,acquisition of neuronal marker NeuN by singly transduced cells,reactive glial cells; 10 DPI,rarely acquired the neuronal marker NeuN
same,effect on expression of vdr,vitamin d receptor (vdr),induces expression of vdr
same,neuronal conversion in MEFs (β-III-tubulin),"[2]; Ascl1-based retroviral vectors, 14 days after infection",42.8%
same,fraction of cells with acquired neuronal morphology dying,[3]; Ascl1 + Bcl-2,about ⅓
same,survival rate of remaining glial cells,[3]; Ascl1 + Bcl-2,10%
same,survival rate of successfully converted cells,[3]; Ascl1 + Bcl-2,2/3
same,effect on rate of proliferation during reprogramming,"[3]; Ascl1 + Bcl-2, 150 h",did not affect the rate of proliferation during reprogramming
same,effect on speed of astrocyte-to-neuron conversion,"[3]; Ascl1 + Bcl-2, first 50-75 h of tracking",accelerated astrocyte-to-neuron conversion
same,increase of proportion of cells successfully completing reprogramming into neurons,[3]; at 50 h of tracking,~8 fold
same,increase of proportion of cells successfully completing reprogramming into neurons,[3]; end of the tracking time period,over 3 fold
same,effect on survival of cells during neuronal conversion,"[3]; co-transduction with Ascl1, 150 hours imaging",robustly enhanced survival of cells during neuronal conversion
same,effect on total number of surviving cells and reprogrammed neurons,"[1]; co-transfected with Ascl1/RFP, 6 and 12 days",distinctly increased the total number of surviving cells and reprogrammed neurons
B2,acquisition of neuronal marker NeuN by singly transduced cells,reactive glial cells; 10 DPI,rarely acquired the neuronal marker NeuN
same,"proportion of neurons induced from MEFs, of all infected cells","[2]; Neurog2-based retroviral vectors, 15 days after infection",10%
B3,effect on reprogramming efficiency of human fibroblasts,adult human fibroblasts,enhance reprogramming efficiency
same,effect on reprogramming efficiency of astrocytes,[1]; 5 DPT,enhance reprogramming efficiency
